Measurements from the DeepSol protein solubility set.

Experiment: soluble on expression in E. coli; label from the status in PepcDB or PDB records

| Sequence | soluble on expression in E. coli |
| --- | --- |
| MSDAQGNTLTEEELAMLRAGDEENDNTDTIMVIRVPNDGSSATAVSIPRDTYIHDDDYGNMKINGVYGAYKDARRAELMEQGFTNESELETRAKDAGREGLIDAVSDLTGITVDHYAEVGLLGFVLLTDAVGGVEVCLNNAVDEPLSGANFPAGRQTLGGSDALSYVRQRHDLPRGDLDRIVRQQSYMASLVNQVLSSGTLTNPAKLSALADAVTRSVVIDEGWEIMSFATQLQNLAGGNVTFATIPVTSIDGTGDYGESVVTIDVNQVHAFFQEALGEAEPAPEDGSDDQSADQAPDLSEVEVHVLNASYVEGLANGIAAQLQELGYSIAETGNAAEGLYYESQILAAEEDSAKALAISEALGGLPIVANSSLDDNTVIVVSAGDYAGPTAEANALEHHHHHH | soluble |
| MSDEAWKQTLICESINDKIGYWEYLAVTDKRRRSRNKAQSSGAENYKKVLEEQQRIYTAGGMGYGPEMYQVISNPMRNQKRVNNIEGSKIFAAMNSGAPRIALDIQYVEEMNKRDSGELGNQMQYTISENFSAKSPFVLDFVNSPSKEFLEQWLSKSVGYYTGNYINQTILPDFSTKGIKEFYGKSANTIYISSNARDVLDGPLTADVIGICVTMGRKREALSAARRANIRAYRLPIHRYVKWKSGPQYLPFPNIMNVLREVYMNGGDWSRALHNNISKRHLVNADDDEQKKMQMLRRRAREEERRELTEAIMSATKG | not soluble |
| MSDEKKGGETEHINLKVLGQDNAVVQFKIKKHTPLRKLMNAYCDRAGLSMQVVRFRFDGQPINENDTPTSLEMEEGDTIEVYQQQTGG | soluble |
| MSDITISRPEVVNGHTDVICSTSIRHILAVRKSTLLQIDTLIRQLAEISVLTESIGGKTAPDWAMKQDFRCGCWLMEKPETAMKAITRNLDREIWRDLMQRSGMLSLMDTQARDTWYRSLEYDNFPEISEANILSTFEQLHQNKDEVFERGVINVFRGLNWNYKTNCPCKFGSKIIVNNLVRWDRWGFHLITGQQADRLADLERMLHLFSGKPIPDNRGNITLRLDDHIQSVQGKESYEDEMFSIRYFKKGSAHITFRKPELVDRLNDIIAKHYPDMLAV | soluble |
| MSDITTKSTKQTESLVCGEFKALGPAPYYVGDEIIVMRCAETINEIFSDWTKRANLDENKYTPFDVNAPIELPRRTDMLKSYNLDPPINETGKIASKMIARELCDRHAIPSVIFCSPDFASVETAHLIKSYIGEKCGAIRIEPELSTLHKSAHVFFGPNHFTSLGYGIDEKNPLHAVSDGVSLSDLVNRIKRAFYELTSKVDNALIIVDSLSMMIISSLFHNVYIRNDSSVDLERLRSLASFPSLSNFTAYRVGGQTGVKTYDLTSTCLRPLTFTGFSNEIDLE | not soluble |
| MSDKHINLVIVTGMSGAGKTVAIQSFEDLGYFTIDNMPPALVPKFLELIEQTNENRRVALVVDMRSRLFFKEINSTLDSIESNPSIDFRILFLDATDGELVSRYKETRRSHPLAADGRVLDGIRLERELLSPLKSMSQHVVDTTKLTPRQLRKTISDQFSEGSNQASFRIEVMSFGFKYGLPLDADLVFDVRFLPNPYYQVELREKTGLDEDVFNYVMSHPESEVFYKHLLNLIVPILPAYQKEGKSVLTVAIGCTGGQHRSVAFAHCLAESLATDWSVNESHRDQNRRKETVNRS | not soluble |
| MSDLLDTVRGLAKKTDSKILMVVLDGVGGLPLTVNGDTELATARTPNLDALAQESQLGQLELVGAGITPGSGPGHLSLFGYDPLKYVVGRGALSAVGIGVKLNRGDVAVRGNFATLGAGRLILDRRAGRPSDEKNAEIVAKLRAAIPEIDGVAVEVYTESEHRFVVVFRAPEGQPLGANISDVDPQVTGVEPKTAIANDPSSEVTAGLINTFVARAEVALADEPQVNGVLFRGYSDVPHFPSFEDAYQLKAACIASYPMYKGLASLVGMDVLPVEGHEDALEGKVKALRENWAKYDFFYFHIKKTDSTGEDGDFAEKVHKIELFDELLPQLLELQPDVIAVVGDHSTPSKLKSHSWHPVPLLIRSNYGRRDPAQRYTEEEAARGTLGLRHGPDLMPLLMANALKLNKYGALEHHHHHH | soluble |
| MSDSASNTENSIQIEIFPSRILSPETAQKLLVELSQVDGILRVMIQGNRLPEKVGYGPGTGEKVEHPLRKPIQIGGQVIELRVSVGRIRLEVLNAEVKENVRAVCEKMLPFSFEFREGHFLRRKPTVTDYAKLGPEADPRLLGMVDPKAKINQLVFILEHHHHHH | not soluble |
| MSDTQQVPAIVILGQGALDTARRVQARYPGALVHGLAGRVEADRSYTDFGDTLRELYCADRPIVALCAAGIVIRSLAPLLQRKGAEPPVLALAEDGSAVVPLLGGLAGVNRLAREIGEVLAVAPAITTSGELRFGTCVLNPPAGYVLADLEQGKRFVADLLGGQPVRVEGAADWLDAARLPRDPEAALAIHVTPSARAPRAEELLIHPRCVLAALEPADAAADAVRQALVDAGLAAAALGGLLADSARMADPRLQAAADALGVPLRFLPQADPAARLRQALPAAEQVGDRLAVAAAPLAMDRIGQRRGRLTVIGLGPGCAELMVPAARRALDEAEDILGYQTYVDMAGPFRAGQVLHGSDNREELQRARHAFELAATGRAVVLVSSGDPGVFAMAAAVLEALHGAGEPAWDAVELRIFPGVSAALATAARAGAPLGHDFCVLSLSDNLKPWEVIERRLDLAGAADLAMAFYNPISRARPWQLGRALEIVARHRSPQTLVVLGRDIGRPGERLLRTTLGELRAEQVDMRTLVIIGSSTTRSFPRADGEAWVYTPRWYPSE | not soluble |
| MSDVAVAETPAVKTPTKASKATKAKATKIPKVKVVAAHPPFINMITEAVSNLKDRKGSSRVAIFKFITAKYTLGDQVNKTNAHLRSALKKGVVSKVLVQTNGIGANGRFRLAVAEKPPAVKKAATGEQKVMKTVAKKAVSGDKAKKTVAKKTGDKVKKVKSPKRIAKPAVKKVTKKAAAPTKSAANETAPKKAAATEAAPKKAAVTKAATKKTPARKAVGTAPKA | soluble |
| MSDYLSVSSLTKYLKLKFDRDPYLERVYLTGQVSNFRRRPNHQYFSLKDEKAVIQATMWSGIYRKLGFELEEGMKINVIGRVQLYEPSGSYSIIIEKAEPDGIGALAVQFEQLKKKLAEAGYFDDRHKQRLSQFVKKIGVVTSPSGAVIRDIITTVSRRFPGVDILLFPTKVQGEGAAQEVADNIRLANERTDLDLLIVGRGGGSIEDLWAFNEEIVVQAIFESHLPIISSVGHETDTTLADFAADRRAATPTAAAELATPVTKADLLAFLKERQMRSYQAVMRLIRQKDEQVKKLQRSVIFRQPERLYDAYVQKLDHLRTHLLTKVRQVYDVYDSKEHLLRQRLLSFNLSGCIQRYQAQLKQDQRLLLSHMSSQYDSKLARFEKAQDALLSLDTTRIVARGYAIVQKDNHIIQSTQQIKKGDRLHLEMKDGQVQVEVENVKQEENI | not soluble |
| MSDYQVLLYYKYTTIDDPETFAKEHLAACKEMELKGRILVATEGINGTVSGTVEATNKYMDYMANDARFADMVFKIDAADAHAFKKMHVRPRAEIVSLSLEEDVNPLEVTGTYLEPSEFREALLDEDTVILDARNDYEFDIGHFRGAVRPDIQNFRELPGWIEDNREQLADKKIVTYCTGGIRCEKFSGWLKTAGFDDVSQLHGGIATYGKNEETKGELWDGQMYVFDERIAVPINQVNPTIVGKDYFDGTPCERYINCANPYCNKQILASIENEKKYLRSCSHDCRVHPANLYTKNLSKEEFTERLQAIDETLPEMVQ | not soluble |
| MSEAAHSGAAPADLVELGRIASAYGVKGWVKVQPHSAQAEVLRTVSHWWLTRPAPQAARGVVASVPRAYQVLQARVHGGAVVAQLAGIDDRDQAEALRGCLVQAARSAFPAPADDEYYWVDLIGCALYSDADGESRLLGVVDEVFDNGAHAVLKVLRQQLQPGQPGPVPLVDPKGRPLEELVPFVRAHIRHVDLAARRIDSDWPLDYLEHHHHHH | soluble |
| MSEAIIAKKAEQVELIAEKMKAAASIVIVDSRGLTVDQDTVLRRSLRESGVEFKVIKNSILTRAAEKAGLDELKDVFVGPSAVAFSNEDVIAPAKVINDFTKTADALEIKGGAIEGAVSSKEEIQALATLPNREGMLSMLLSVLQAPVRNVAYAVKAVAENKEGAA | not soluble |
| MSEDKDMKNRNAMTIKRFVDVEEDGEHGGSGEFAELFQESIKQHRVGEVVTGKVVHISNEFVLVDIGYKSEGCIAIDEFLDEDGNLTVKVGDEVKALFERKENQKGYAVLSRRKAERLAVWDVIDEAGGEGGIIEGKITGKVKGGLTVDIGVQAFLPASQVDLRPGGNLDKYIGTTDRFKVLKLNKKRGNIVLSRRVLMEEERESSRKETLATLAEGQVREGVVKNITDYGAFVDIGGVDGLLHVTDMSWGRLGHPSEILKPGDKLNVKVLKYDQEKGKISLGLKQVTPDPWVSVEQKYNQGDRVKGKVVSLTDYGAFIALEDGVEGLVHVSEMSWTRRLRHPSEILTVGDEVETVVLGVDMGNRRISLGLKQVQVNPWTQLEEKYPVGTKLEGQIKSITDFGVFIGIEEGIDGLVHVSDISWTKRIKHPGEVFTKGQTVQAVVLNIDPENERLSLGIKQLLLDPWSEIPVKYRPGTRVHGKVTSVTDFGVFLEIEEGIEGLIHVSELSREKVASPKEFTNVGDELDAVVLSVDESEKKIALSIKSLQMAAEKAEIESYMQAQGEATSNLGELLKVGFRKNGDGNDLEHHHHHH | not soluble |
| MSEELSGVIIVLHKELSCRKEITDLQEISIALPDLMLSPKSKIVSDPASSKIDLNDRTTCSAEPNLFFVIFLSKNLNFSSKVFLSAVNNKSFSIQTRIT | not soluble |
| MSEHQSLPAPEASTEVRVAIVGVGNCASSLVQGVEYYYNADDTSTVPGLMHVRFGPYHVRDVKFVAAFDVDAKKVGFDLSDAIFASENNTIKIADVAPTNVIVQRGPTLDGIGKYYADTIELSDAEPVDVVQALKEAKVDVLVSYLPVGSEEADKFYAQCAIDAGVAFVNALPVFIASDPVWAKKFTDARVPIVGDDIKSQVGATITHRVLAKLFEDRGVQLDRTMQLNVGGNMDFLNMLERERLESKKISKTQAVTSNLKREFKTKDVHIGPSDHVGWLDDRKWAYVRLEGRAFGDVPLNLEYKLEVWDSPNSAGVIIDAVRAAKIAKDRGIGGPVIPASAYLMKSPPEQLPDDIARAQLEEFIIG | soluble |
| MSEIKTDDPKRGIKLRGADKTARIPIKVVPLQEKLKKPEWIRAKLPSRKFFEIKDILREQKMHTVCEEASCPNIGECFSKGTATFMIMGDICTRRCPFCDVGHGRPNMLDPDEPRNLAESVKAMNLRYVVITSVDRDDLRDGGAQHFADCIKAIRETSPNTKIEILVPDFRGRLDIALKILAETPPDVMNHNLETHPSLYRKARPGANYQHSLDLLKRYKEMMPHIPTKSGIMVGLGETDEDVREIMRDMRAHNIEMITIGQYLQPSDGHLPVLRYVTPEQFKIFEKEAYELGFSNAAIGAMVRSSYHADEQAAEALRESHGGCGHH | not soluble |
| MSEILFINGKVRFPITIDPTVWIFDDRKVDLTTYFDETRENTSELETYLKNTSEHWDREIRDGAAFPPIQQSVKKYKKEQLITGTFGIPFHPFLANAEILEDATQVEIETVDHTMTLPLETVKNAILGFSKEGKPLKEDGPVHLYFNDGSNQQNPIRNIRKFTII | not soluble |
